Data as given in the RNAGym collection of RNA variant scans (doi:10.7554/elife.80360).

B1: Hairpin Ribozyme (parent)
chain: GUCCUCUUUCACGUGCGCGUGAAAGAGAGAAGUGAACCAGAGAAACACACGUUGUGGUAUAUUACCUGGUA

Variants of: B1
Assay: self-cleavage, relative activity (ratio to wild type); higher = more cleavage; co-transcriptional

Variant | self-cleavage
G25C A28G | 0.883
G25A U63C | 0.17
G25A U63A | 0.108
A24U A61C | 0.0949
G25A U67G | 0.176
G25A U67C | 0.166
G25C A61C | 0.0596
A24G A36C | 0.466
A24U U55C | 0.11
A24U U55A | 0.186
A24U U55G | 0.242
G25C C50G | 0.178
A24U G56U | 0.232
A24U A31U | 0.0897
A24U A31G | 0.392
G25A G29A | 0.204
A24G G69U | 0.13
G25C A59G | 0.123
A24U A64U | 0.0963
A24U A64C | 0.142
G25A C50A | 0.107
A24U G51A | 0.751
A24U G51U | 0.78
A24G U63C | 0.0931

Variant | self-cleavage
A24U U60C | 1.09
G25C A36U | 0.397
G25A C66A | 0.15
A24U A28G | 0.731
A24U A28U | 0.521
A24U G32A | 0.15
A24U G32C | 0.114
A24U G68A | 0.361
A24U G68C | 0.0904
A24G C48G | 0.181
A24G C48U | 0.179
G25A G69A | 0.238
G25A G69U | 0.0604
G25A U53G | 0.524
A24G U33C | 0.125
A24G U33G | 0.0457
G25A A71C | 1.1
A24G A43G | 0.132
A24G A59G | 0.272
G25C C37A | 0.281
A24G A39G | 0.308
A24G U53C | 0.881
A24G A41G | 0.78
A24G U70C | 0.913

Variant | self-cleavage
A24U A36U | 0.41
A24G A28U | 0.475
A24G A28C | 0.338
A24U A39G | 0.34
G25A C65U | 0.215
A24G G29A | 0.11
G25A A39C | 0.374
A24U G27C | 0.194
G25A A49G | 0.275
A24U A45G | 0.241
G25A A28U | 0.585
G25A A28C | 0.394
G25C C38U | 0.263
G25A C38U | 0.283
A24U C50A | 0.346
G25A A43G | 0.133
A24G G68A | 0.172
G25A G68C | 0.22
A24U U63C | 0.233
A24G G27A | 0.401
G25A G32U | 0.144
A24U U67G | 0.231
A24U U67C | 0.207
G25C C66U | 0.182

Variant | self-cleavage
G25C C66A | 0.133
G25C A64C | 0.0865
G25C A64G | 0.4
A24G A61U | 0.084
G25A A44G | 0.158
G25A A44C | 0.139
A24U C38G | 0.135
A24U C38U | 0.471
A24U G54A | 0.472
A24U G54C | 0.423
A24U U53G | 0.674
G25C A44U | 0.112
G25C A44G | 0.085
A24G A35U | 0.645
A24G A35C | 0.82
A24G A35G | 0.797
A24G C50A | 0.187
A24G A49G | 0.352
A24G A49U | 0.124
G25A A30C | 0.087
A24G A44G | 0.152
G25A C48A | 0.176
G25A C48U | 0.135
G25A A26U | 0.175

Variant | self-cleavage
A24G U62G | 0.0667
A24G U62C | 0.257
A24G C38G | 0.197
A24G C38A | 0.125
A24U G57C | 0.181
G25A A59G | 0.138
G25C A43U | 0.243
G25C A43C | 0.0652
A24G C66A | 0.214
A24G C66U | 0.403
G25A G27U | 0.177
A24U C48A | 0.0466
A24G G25U | 0.527
G25A C46A | 0.105
A24U U52C | 0.723
A24U A43C | 0.174
A24U G69A | 0.327
A24U G40U | 0.187
A24U G40A | 0.281
G25C G29A | 0.13
G25A G57C | 0.0684
G25A U70G | 0.509
A24G A64U | 0.135
G25A A61U | 0.0154

Variant | self-cleavage
G25A A64G | 0.469
A24G G57A | 0.228
A24G G57C | 0.118
G25A U55C | 0.208
A24G A47G | 0.191
A24G A47C | 0.245
G25A G51A | 0.586
A24G G40U | 0.147
A24U A35C | 0.951
A24U A35U | 0.584
A24C U62G | 0.199
A24U C65A | 0.734
A24U C65U | 0.39
G25C A47G | 0.071
G25C C65U | 0.324
A24U G29A | 0.146
A24U G29U | 0.0631
A24U A44U | 0.123
G25C A71G | 0.687
A24G A45G | 0.104
G25C A35C | 0.474
A24G U55G | 0.193
A24G G51U | 0.881
A24G G51A | 0.745

Variant | self-cleavage
G25A C37G | 0.134
G25A C37A | 0.199
G25A A31G | 0.127
G25A U52G | 0.61
G25A U52A | 0.643
G25A U58G | 0.496
G25A U58A | 0.376
G25A U33G | 0.136
G25A G40C | 0.145
G25A G40A | 0.191
A24U A71G | 1.11
G25A U60G | 0.291
G25C G27U | 0.164
G25C C46G | 0.115
G25A G56U | 0.117
A24C U63C | 0.184
A24U G42U | 0.342
A24U G42C | 0.394
G25A A47G | 0.277
A24U A49G | 0.533
A24U A59U | 0.185
G25A A45C | 0.109
G25A G42U | 0.186
